Values of other authors as cited in PMC11820047.
Where two headings read alike, the source gives them in different places.

What was measured:
EGFR (Homo sapiens) [1] = biological target: EGFR (Homo sapiens) (UniProt P00533)
EGFR (Homo sapiens) [2] = biological target: EGFR (Homo sapiens) (UniProt P00533); remark: listed apart in the source

Kd (EGFR (Homo sapiens) [1])	Substance	Kd (EGFR (Homo sapiens) [2])
2 nM	EGF (from UniProt P01133)	
	GE11	22 nM
